Test results as given in paper PMC12274814.

Biological target: nsP13 helicase (SARS-CoV-2) (UniProt P0DTD1)

Question: How did the K half turn out when ssDNA-F (25-nt) was run?
Answer: 53 nM
